Literature values in publication PMC12071684.

Biological target: von Willebrand factor (Homo sapiens) (UniProt P04275)

Kd: 20 nM
Substance: ADAMTS13 (from UniProt Q76LX8)
